Paper PMC8063757, “The DNA-binding protein HU is a molecular glue that attaches bacteria to extracellular DNA in biofilms” (The Journal of Biological Chemistry, 2020)
Several values for one entry are separate records, joined by “and”; a condition that tells them apart may be missing. Equal entries are not always repeated.

Tests used:
[1] = biological target: the molecule itself; experiment: cross-linking; glutaraldehyde added to HU-B or its variant alone (no f-LPS); 15% SDS-PAGE, Coomassie Blue G-250 staining
[2] = biological target: the molecule itself; experiment: SEC; Superdex-75 10/300GL on an AKTA Purifier-10; elution at ~12 ml, corresponding to ~25 kDa
LysrHU-B = biological target: T1, LysrHU-B (Escherichia coli K-12, UniProt P0ACF4 1-90, K83A;K86A); experiment: EMSA; EMSA on 0.7% or 1% agarose gels, EtBr stain; binding buffer, salt, pH and temperature not stated; conditions: protein: recombinant; chain copies: 2; label: none (EtBr stain); four-way junction of 4 strands, equimolar, one copy each; strands as printed are not perfectly complementary
T1 sequence: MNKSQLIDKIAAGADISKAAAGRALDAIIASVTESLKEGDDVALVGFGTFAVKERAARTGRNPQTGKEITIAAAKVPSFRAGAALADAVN

LysrHU-A = LysrHU-A (Escherichia coli K-12, UniProt P0ACF0 1-90, K83A;K86A); experiment: as above; conditions: protein: recombinant; chain copies: 2; label: none (EtBr stain); four-way junction of 4 strands, equimolar, one copy each; strands as printed are not perfectly complementary
HU-A K86A = HU-A K86A (Escherichia coli K-12, UniProt P0ACF0 1-90, K86A); experiment: as above; conditions: protein: recombinant; chain copies: 2; label: none (EtBr stain); four-way junction of 4 strands, equimolar, one copy each; strands as printed are not perfectly complementary
LoodHU-B K86A = biological target: T2, LoodHU-B K86A (Escherichia coli K-12, UniProt P0ACF4 1-51+=SGGGGSGGGGS+75-90, K86A;internal_change); experiment: as above; conditions: protein: recombinant; chain copies: 2; label: none (EtBr stain); four-way junction of 4 strands, equimolar, one copy each; strands as printed are not perfectly complementary
T2 sequence: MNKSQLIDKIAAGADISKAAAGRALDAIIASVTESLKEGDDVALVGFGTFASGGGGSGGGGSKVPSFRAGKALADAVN

LoodLysrHU-A = LoodLysrHU-A (Escherichia coli K-12, UniProt P0ACF0 1-51+=SGGGGSGGGGS+75-90, K83A;K86A;internal_change); experiment: as above; conditions: protein: recombinant; chain copies: 2; label: none (EtBr stain); four-way junction of 4 strands, equimolar, one copy each; strands as printed are not perfectly complementary
F47W HU-B = biological target: T3, F47W HU-B (Escherichia coli K-12, UniProt P0ACF4 1-90, F47W); experiment: as above; conditions: protein: recombinant; chain copies: 2; label: none (EtBr stain); four-way junction of 4 strands, equimolar, one copy each; strands as printed are not perfectly complementary
T3 sequence: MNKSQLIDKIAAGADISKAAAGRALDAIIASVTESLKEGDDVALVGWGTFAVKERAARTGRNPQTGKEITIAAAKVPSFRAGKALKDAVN

HU-B K83A = biological target: T4, HU-B K83A (Escherichia coli K-12, UniProt P0ACF4 1-90, K83A); experiment: as above; conditions: protein: recombinant; chain copies: 2; label: none (EtBr stain); four-way junction of 4 strands, equimolar, one copy each; strands as printed are not perfectly complementary
T4 sequence: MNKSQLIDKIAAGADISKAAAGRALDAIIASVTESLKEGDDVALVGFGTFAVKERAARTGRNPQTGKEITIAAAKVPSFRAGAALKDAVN

HU-A K83A = HU-A K83A (Escherichia coli K-12, UniProt P0ACF0 1-90, K83A); experiment: as above; conditions: protein: recombinant; chain copies: 2; label: none (EtBr stain); four-way junction of 4 strands, equimolar, one copy each; strands as printed are not perfectly complementary
F79W HU-B = biological target: T5, F79W HU-B (Escherichia coli K-12, UniProt P0ACF4 1-90, F79W); experiment: as above; conditions: protein: recombinant; chain copies: 2; label: none (EtBr stain); four-way junction of 4 strands, equimolar, one copy each; strands as printed are not perfectly complementary
T5 sequence: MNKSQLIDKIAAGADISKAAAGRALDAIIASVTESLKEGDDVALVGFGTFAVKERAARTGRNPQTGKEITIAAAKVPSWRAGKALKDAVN

LoodHU-B K83A = biological target: T6, LoodHU-B K83A (Escherichia coli K-12, UniProt P0ACF4 1-51+=SGGGGSGGGGS+75-90, K83A;internal_change); experiment: as above; conditions: protein: recombinant; chain copies: 2; label: none (EtBr stain); four-way junction of 4 strands, equimolar, one copy each; strands as printed are not perfectly complementary
T6 sequence: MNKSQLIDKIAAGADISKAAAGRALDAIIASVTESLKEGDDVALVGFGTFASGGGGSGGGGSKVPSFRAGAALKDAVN

LoodHU-A K86A = LoodHU-A K86A (Escherichia coli K-12, UniProt P0ACF0 1-51+=SGGGGSGGGGS+75-90, K86A;internal_change); experiment: as above; conditions: protein: recombinant; chain copies: 2; label: none (EtBr stain); four-way junction of 4 strands, equimolar, one copy each; strands as printed are not perfectly complementary
LoodHU-B = biological target: T7, LoodHU-B (Escherichia coli K-12, UniProt P0ACF4 1-51+=SGGGGSGGGGS+75-90, internal_change); experiment: as above; conditions: protein: recombinant; chain copies: 2; label: none (EtBr stain); four-way junction of 4 strands, equimolar, one copy each; strands as printed are not perfectly complementary
T7 sequence: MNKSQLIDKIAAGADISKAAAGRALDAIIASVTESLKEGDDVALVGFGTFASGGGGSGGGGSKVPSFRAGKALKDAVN

LoodLysrHU-B = biological target: T8, LoodLysrHU-B (Escherichia coli K-12, UniProt P0ACF4 1-51+=SGGGGSGGGGS+75-90, K83A;K86A;internal_change); experiment: as above; conditions: protein: recombinant; chain copies: 2; label: none (EtBr stain); four-way junction of 4 strands, equimolar, one copy each; strands as printed are not perfectly complementary
T8 sequence: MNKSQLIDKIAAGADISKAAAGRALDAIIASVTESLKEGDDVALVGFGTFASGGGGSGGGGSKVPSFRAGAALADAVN

HU-B = biological target: T9, HU-B (Escherichia coli K-12, UniProt P0ACF4 1-90); experiment: as above; conditions: protein: recombinant; chain copies: 2; label: none (EtBr stain); four-way junction of 4 strands, equimolar, one copy each; strands as printed are not perfectly complementary
T9 sequence: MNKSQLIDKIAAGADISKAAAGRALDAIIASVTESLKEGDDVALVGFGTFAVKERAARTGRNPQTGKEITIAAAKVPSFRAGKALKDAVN

HU-B K86A = biological target: T10, HU-B K86A (Escherichia coli K-12, UniProt P0ACF4 1-90, K86A); experiment: as above; conditions: protein: recombinant; chain copies: 2; label: none (EtBr stain); four-way junction of 4 strands, equimolar, one copy each; strands as printed are not perfectly complementary
T10 sequence: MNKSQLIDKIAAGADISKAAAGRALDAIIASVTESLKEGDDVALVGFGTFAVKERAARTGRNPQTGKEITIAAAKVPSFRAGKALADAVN

LoodHU-A K83A = LoodHU-A K83A (Escherichia coli K-12, UniProt P0ACF0 1-51+=SGGGGSGGGGS+75-90, K83A;internal_change); experiment: as above; conditions: protein: recombinant; chain copies: 2; label: none (EtBr stain); four-way junction of 4 strands, equimolar, one copy each; strands as printed are not perfectly complementary

B1: HU-B WT (6xHis-tagged) (natural protein, E. coli K-12)
chain: MNKSQLIDKIAAGADISKAAAGRALDAIIASVTESLKEGDDVALVGFGTFAVKERAARTGRNPQTGKEITIAAAKVPSFRAGKALKDAVN
notes: HU-B, isoform of the nucleoid-associated histone-like protein HU of E. coli; gene PCR-amplified from E. coli K-12 genomic DNA; ~90 amino acids, ~9.2-kDa polypeptide; Cloned between BamHI and HindIII of pQE-30; also called WT HU; source: E. coli XL-1 Blue (pQE-30), purified (Ni-NTA, 2 M NaCl wash)
stoichiometry N [1]: 2 and 4 and 3 and 6

B2: LysrHU-B (lysine-replaced HU-B, K83A and K86A) (natural protein, E. coli K-12)
chain: MNKSQLIDKIAAGADISKAAAGRALDAIIASVTESLKEGDDVALVGFGTFAVKERAARTGRNPQTGKEITIAAAKVPSFRAGAALADAVN
notes: source: E. coli XL-1 Blue (pQE-30), purified (Ni-NTA, 2 M NaCl wash)
stoichiometry N [2]: 2 | stoichiometry N [1]: 4

B3: 4WJ DNA (structured_DNA)
DNA 1: CCCTATAACCCCTGCATTGAATTCCTGTCTGATAA
DNA 2: GTAGTCGTGATAGGTGCAGGGGTTATAGGG
DNA 3: AACAGTAGCTCTTAATTCGAGCTCGCGCCCTATCACGACTA
DNA 4: TTTATCAGACTGGAATTCAAGCGCGAGCTCGAATAAGAGCTACTGT
binding result (LysrHU-B): binds | binding result (LysrHU-A): binds | binding result (HU-A K86A): binds | binding result (LoodHU-B K86A): no binding | binding result (LoodLysrHU-A): no binding | binding result (F47W HU-B): binds | binding result (HU-B K83A): binds | binding result (HU-A K83A): binds | binding result (F79W HU-B): binds | binding result (LoodHU-B K83A): no binding | binding result (LoodHU-A K86A): no binding | binding result (LoodHU-B): binds | binding result (LoodLysrHU-B): no binding | binding result (HU-B): binds | binding result (HU-B K86A): binds | binding result (LoodHU-A K83A): no binding

B4: LoodLysrHU-B (loop-deleted and lysine-replaced HU-B) (natural protein, E. coli K-12)
chain: MNKSQLIDKIAAGADISKAAAGRALDAIIASVTESLKEGDDVALVGFGTFASGGGGSGGGGSKVPSFRAGAALADAVN
notes: HU-B of E. coli K-12, the stretch before the deleted loop (residues 52 to 74 deleted); 11-residue glycine/serine-rich linker that replaces residues 52 to 74; HU-B of E. coli K-12, the stretch after the deleted loop, with K83A and K86A (numbers count on unchanged HU-B); Combines the LoodHU-B and LysrHU-B changes; source: E. coli XL-1 Blue (pQE-30), purified (Ni-NTA, 2 M NaCl wash)
stoichiometry N [2]: 2 | stoichiometry N [1]: 4

B5: LoodHU-B (loop-deleted HU-B) (natural protein, E. coli K-12)
chain: MNKSQLIDKIAAGADISKAAAGRALDAIIASVTESLKEGDDVALVGFGTFASGGGGSGGGGSKVPSFRAGKALKDAVN
notes: HU-B of E. coli K-12, the stretch before the deleted loop (residues 52 to 74 deleted); 11-residue glycine/serine-rich linker that replaces residues 52 to 74; HU-B of E. coli K-12, the stretch after the deleted loop (residues 52 to 74 deleted); The results call the loop 22 residues long, but residues 52 to 74 are 23 residues; source: E. coli XL-1 Blue (pQE-30), purified (Ni-NTA, 2 M NaCl wash)
stoichiometry N [2]: 2 | stoichiometry N [1]: 4
